Experimental data as given in patent publication US20240002540A1 (KEYMED BIOSCIENCES CHENGDU, published 2024).

Columns and labels:
[1] = target: T1, human CD3 on T cells (Jurkat cells; human peripheral blood CD4+ and CD8+ T-cells) (human, UniProt P07766 23-207); assay: flow cytometry on human peripheral blood CD4+ T cells
T1 construct: whole, on cells; the other chains of the complex are present on the cells; also called CD4T; CD4 + T

[2] = target: T1, human CD3 on T cells (Jurkat cells; …); assay: flow cytometry on human peripheral blood CD8+ T cells
[3] = target: T1, human CD3 on T cells (Jurkat cells; …); assay: flow cytometry on Jurkat cells
Experimental: The cells were adjusted to 5×10^5 cells/mL with 4% calf serum, 100 μL/well was added to 96-well U-plate, 300 g was centrifuged to removed the supernatant, 100 μL/well of gradient diluted antibody (initial concentration: 1800 nM, 3-fold dilution, 10 gradients) was added and incubated at 4° C. for 60 min. […] 50 μL/well PI was added after washing once, incubated for 5 min, and detected with flow cytometer (BD C6).

human BCMA on cells [4] = target: T2, human BCMA on cells (human, UniProt Q02223 1-184); assay: flow cytometry on NCI-H929 cells
T2 construct: whole, on cells; also called Human BCMA-CHO; CHO-hBCMA
T2 sequence (looked up): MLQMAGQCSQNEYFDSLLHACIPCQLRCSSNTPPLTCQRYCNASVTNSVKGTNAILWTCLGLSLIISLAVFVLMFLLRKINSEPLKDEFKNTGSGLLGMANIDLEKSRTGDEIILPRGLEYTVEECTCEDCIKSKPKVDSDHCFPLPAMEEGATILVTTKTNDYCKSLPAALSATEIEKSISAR
Experimental: (§1) 50 μL/well Alexa Fluro647 labeled goat anti-human IgG Fc (1: 300 dilution) were added to the secondary antibody, incubated on ice for 20 min, added with 50 μL/well PI solution (1: 300) after washing once, incubated for 5 min, and flow cytometer was used to make detection.

human BCMA on cells [5] = target: T2, human BCMA on cells; assay: flow cytometry on RPMI-8226 cells
Experimental: as §1

human BCMA on cells [6] = target: T2, human BCMA on cells; assay: flow cytometry on CHO-human BCMA cells
Experimental: as §1

[7] = target: T1, human CD3 on T cells (Jurkat cells; …); assay: flow cytometry on human peripheral blood CD4+ T-cells
Experimental: (§2) Fresh human peripheral blood was taken and PBMC was isolated by Ficoll. Paque Plu (GE, 17-1440-03). PBMC was adjusted to 5×10⁵ cells/mL with 4% calf serum (Hyclone, SH30626.06), 100 μL/well was added to a 96-well U-plate, the supernatant was centrifuged off and 100 μL of gradient diluted antibody (with starting concentration of 1800 nM, 3-fold dilution, 10 gradients) was added to each well and incubated for 60 min at 4° C. 50 μL/well of Alexa Fluro647 labeled goat anti-human IgG Fc (1: 300 dilution) was added to the secondary antibody, with ice bath for 20 min, and 50 μL/well PI added after washing once, incubated for 5 min, and flow cytometer (BD C6) was used for detection. The control antibody REGN5458 was synthesized and prepared according to US20200024356.

[8] = target: T1, human CD3 on T cells (Jurkat cells; …); assay: flow cytometry on human peripheral blood CD8+ T-cells
Experimental: as §2

[9] = target: T3, human CD3εγ-Fc heterodimer (human); assay: SPR (Biacore T200), antigen amine-coupled to CM5 chip, antibody as analyte, 1:1 model
T3 construct: also called human CD3εγ protein; human CD3εγ recombinant protein
T3 chain 1: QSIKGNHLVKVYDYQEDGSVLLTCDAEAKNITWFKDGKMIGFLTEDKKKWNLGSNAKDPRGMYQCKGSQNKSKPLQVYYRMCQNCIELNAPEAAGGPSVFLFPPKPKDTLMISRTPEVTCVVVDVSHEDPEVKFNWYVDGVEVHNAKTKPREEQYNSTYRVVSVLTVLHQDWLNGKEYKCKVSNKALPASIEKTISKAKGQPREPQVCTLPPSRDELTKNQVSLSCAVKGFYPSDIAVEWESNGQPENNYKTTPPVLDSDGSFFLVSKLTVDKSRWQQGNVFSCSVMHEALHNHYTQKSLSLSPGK
T3 chain 2: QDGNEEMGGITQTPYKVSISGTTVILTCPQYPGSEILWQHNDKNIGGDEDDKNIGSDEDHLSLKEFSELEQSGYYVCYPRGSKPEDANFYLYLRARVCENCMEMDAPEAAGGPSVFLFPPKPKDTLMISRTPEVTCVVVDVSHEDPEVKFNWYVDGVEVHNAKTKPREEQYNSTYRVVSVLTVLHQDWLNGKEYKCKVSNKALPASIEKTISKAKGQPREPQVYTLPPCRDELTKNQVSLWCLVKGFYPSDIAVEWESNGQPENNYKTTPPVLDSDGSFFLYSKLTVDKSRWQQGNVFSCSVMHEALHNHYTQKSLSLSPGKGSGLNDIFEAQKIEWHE
Experimental: (§3) 10 μg/mL human or cynomolgus monkey BCMA or CD3εγ recombinant antigen was bound to a CM5 chip (GE healthcare) by amino conjugating, while the amount of antigen bound was controlled to approximately 200 RU. After baseline plateau, gradient diluted antibodies (7 gradients of 2-fold dilutions from 10 μg/mL) were flowed through the chip at a flow rate of 30 μL/min for a binding time of 350 seconds and a dissociation time of 600 seconds. Kinetic constants were fitted using Biacore T200 evaluation software with a 1: 1 binding model.

[10] = target: T4, Cynomolgus monkey CD3εγ-Fc heterodimer (cynomolgus monkey); assay: as above
T4 construct: also called cynomolgus monkey CD3εγ protein
T4 chain 1: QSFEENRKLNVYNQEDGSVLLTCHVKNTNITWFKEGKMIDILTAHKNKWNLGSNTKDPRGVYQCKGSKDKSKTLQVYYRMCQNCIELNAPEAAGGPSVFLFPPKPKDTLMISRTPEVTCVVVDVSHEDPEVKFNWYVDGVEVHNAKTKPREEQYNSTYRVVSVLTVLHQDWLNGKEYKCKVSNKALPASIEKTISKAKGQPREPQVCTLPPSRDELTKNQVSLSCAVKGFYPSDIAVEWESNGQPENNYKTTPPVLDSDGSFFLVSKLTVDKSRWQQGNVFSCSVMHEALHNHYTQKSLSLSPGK
T4 chain 2: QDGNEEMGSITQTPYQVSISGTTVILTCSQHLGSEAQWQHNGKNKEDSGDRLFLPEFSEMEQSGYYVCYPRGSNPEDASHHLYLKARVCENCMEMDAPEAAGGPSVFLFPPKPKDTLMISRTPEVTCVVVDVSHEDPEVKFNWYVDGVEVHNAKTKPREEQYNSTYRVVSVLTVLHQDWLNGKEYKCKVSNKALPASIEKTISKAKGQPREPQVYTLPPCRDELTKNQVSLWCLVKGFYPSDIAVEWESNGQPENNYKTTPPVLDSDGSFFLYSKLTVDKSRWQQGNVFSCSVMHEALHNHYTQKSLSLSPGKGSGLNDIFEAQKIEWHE
Experimental: as §3

[11] = target: T5, human BCMA recombinant antigen (human, UniProt Q02223 1-54, limits assumed); assay: as above
T5 sequence (looked up): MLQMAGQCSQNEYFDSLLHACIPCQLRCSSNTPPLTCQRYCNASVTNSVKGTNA
Experimental: as §3

[12] = target: cynomolgus monkey BCMA recombinant antigen (cynomolgus monkey, UniProt A0A2K5UD97 1-53); assay: as above
Experimental: as §3

[13] = target: T4, Cynomolgus monkey CD3εγ-Fc heterodimer; assay: ELISA on coated cynomolgus monkey CD3εγ protein (panel 'Monkey CD3εγ dimer')
Experimental: Human CD3εγ protein and cynomolgus monkey CD3εγ protein were coated separately overnight at 4° C. After blocking with 2% skim milk, different dilutions of CD3 antibody were added to each well and incubated for 1 hour. After the secondary antibody was developed by adding HPR-labeled goat anti-human IgG Fc and TMB solution, the reaction was stopped with concentrated sulfuric acid, and the absorbance was read at 450 nm.

cynomolgus monkey BCMA recombinant antigen, sequence (A0A2K5UD97 entry or part of it): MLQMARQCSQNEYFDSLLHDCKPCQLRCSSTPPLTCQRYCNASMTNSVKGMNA

B1: REGN5458 (antibody, V domains shown)
VH: EVQLVESGGGLVQPGRSLRLSCAASGFTFDDYSMHWVRQAPGKGLEWVSGISWNSGSKGYADSVKGRFTISRDNAKNSLYLQMNSLRAEDTALYYCAKYGSGYGKFYHYGLDVWGQGTTVTVSS
VL: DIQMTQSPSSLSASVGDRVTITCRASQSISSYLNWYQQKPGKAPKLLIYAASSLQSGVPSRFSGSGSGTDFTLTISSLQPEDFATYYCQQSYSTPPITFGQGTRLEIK
**Q.** Which results are given for B1?
**A.** EC50 (read off the curve) [1]: ~10 nM; EC50 (read off the curve) [2]: ~10 nM

B2: BCMA×CD3 κλ006 (bispecific antibody, human IgG4 S228P, kappa, lambda)
light 1: DIVLTQSPASLAVSPGQRATITCRASKSVTTSGYSYIHWYQKKPGQPPKLLIYLASDLEAGVPARFSGSGSGTDFTLTINPVEAEDTANYYCQHSRELPWTFGQGTKVEIKRTVAAPSVFIFPPSDEQLKSGTASVVCLLNNFYPREAKVQWKVDNALQSGNSQESVTEQDSKDSTYSLSSTLTLSKADYEKHKVYACEVTHQGLSSPVTKSFNRGEC
heavy 1: QVQLVQSGSELKKPGASVKVSCKASGYIFTNFGMNWVREAPGQGLEWMGWINTYTGEQIYADGFTGRFVFSLDTSASTAYLQISSLKAEDTAVYFCARGEIYYGYDVGFVYWGQGTLVTVSSASTKGPSVFPLAPCSRSTSESTAALGCLVKDYFPEPVTVSWNSGALTSGVHTFPAVLQSSGLYSLSSVVTVPSSSLGTKTYTCNVDHKPSNTKVDKRVESKYGPPCPPCPAPEFEGGPSVFLFPPKPKDTLMISRTPEVTCVVVDVSQEDPEVQFNWYVDGVEVHNAKTKPREEQFNSTYRVVSVLTVLHQDWLNGKEYKCKVSNKGLASSIEKTISKAKGQPREPQVCTLPPSQEEMTKNQVSLSCAVKGFYPSDIAVEWESNGQPENNYKTTPPVLDSDGSFFLVSKLTVDKSRWQEGNVFSCSVMHEALHNHYTQKSLSLSLGK
light 2: QAVVTQEPSLTVSPGGTVTLTCRSSTGAVTTSNYANWVQEKPGQAPRGLIGGTNKRAPWTPARFSGSLLGGKAALTITGAQAEDEAEYYCVLWYSNLWVFGGGTKLTVLGQPKAAPSVTLFPPSSEELQANKATLVCLISDFYPGAVTVAWKADSSPVKAGVETTTPSKQSNNKYAASSYLSLTPEQWKSHRSYSCQVTHEGSTVEKTVAPTECS
heavy 2: EVQLVESGGGLVQPGGSLRLSCAASGFTFNTYAMNWVRKAPGKGLEWVGRIRSKYNNYATYYADSVKDRFTISRDDSKNSLYLQMNSLKTEDTAVYYCVRHGNFGNSYVSWFAYWGQGTLVTVSSASTKGPSVFPLAPCSRSTSESTAALGCLVKDYFPEPVTVSWNSGALTSGVHTFPAVLQSSGLYSLSSVVTVPSSSLGTKTYTCNVDHKPSNTKVDKRVESKYGPPCPPCPAPEFEGGPSVFLFPPKPKDTLMISRTPEVTCVVVDVSQEDPEVQFNWYVDGVEVHNAKTKPREEQFNSTYRVVSVLTVLHQDWLNGKEYKCKVSNKGLASSIEKTISKAKGQPREPQVYTLPPCQEEMTKNQVSLWCLVKGFYPSDIAVEWESNGQPENNYKTTPPVLDSDGSFFLYSKLTVDKSRWQEGNVFSCSVMHEALHNHYTQKSLSLSLGK
**Q.** What does the source list for B2?
**A.** EC50 [3]: 56 nM; EC50 (human BCMA on cells [4]): 32 nM; EC50 (human BCMA on cells [5]): 19 nM; EC50 (human BCMA on cells [6]): 16 nM; EC50 [7]: 91 nM; EC50 [8]: 93 nM; Kd [9]: 27 nM; Kd [10]: 33 nM; Kd [11]: 1.2 nM; Kd [12]: 0.1 nM

B3: aCD3-hVH9/VL2 (antibody, human IgG4, V domains shown)
VH: EVQLVESGGGLVQPGGSLRLSCAASGFTFNTYAMNWVRKAPGKGLEWVGRIRSKYNNYATYYADSVKDRFTISRDDSKNSLYLQMNSLKTEDTAVYYCVRHGNFGNSYVSWFAYWGQGTLVTVSS
VL: QAVVTQEPSLTVSPGGTVTLTCRSSTGAVTTSNYANWVQEKPGQAPRGLIGGTNKRAPWTPARFSGSLLGGKAALTLSGAQPEDEAEYYCALWYSNLWVFGGGTKLTVL
notes: also called humanized anti-CD3 antibody hVH9/VL2
**Q.** For B3, which “EC50 (read off the curve)” value [13] is on record?
**A.** The value was about 0.04 ng/mL.

B4: aCD3-hVH9/VL5 (antibody, human IgG4, V domains shown)
VH: EVQLVESGGGLVQPGGSLRLSCAASGFTFNTYAMNWVRKAPGKGLEWVGRIRSKYNNYATYYADSVKDRFTISRDDSKNSLYLQMNSLKTEDTAVYYCVRHGNFGNSYVSWFAYWGQGTLVTVSS
VL: QAVVTQEPSLTVSPGGTVTLTCRSSTGAVTTSNYANWVQEKPGQAPRGLIGGTNKRAPWTPARFSGSLLGGKAALTITGAQAEDEAEYYCVLWYSNLWVFGGGTKLTVL
notes: also called humanized anti-CD3 antibody hVH9/VL5
**Q.** For B4, which “EC50 (read off the curve)” value [13] is on record?
**A.** The value was about 0.06 ng/mL.
